Results reported in the supplement of paper PMC9233669.
Variants at the floor of the assay were thinned out.

Columns and labels:
biotinyl-Leu-oxazolone = assay: self-aminoacylation, catalytic enhancement (BLO) (fold over background); higher = more active; k-Seq, kA / k0A0; sequences stand for … in GGGAAUGGAUCCACAUCUACGAAUUC…UUCACUGCAGACUUGACGAAGCUG
How it was run: (§1)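 Catalytic enhancement equals the median kA over the uncatalyzed rate, the latter read from the low-activity peak of a bimodal Gaussian fit. Values of kA came from fitting each sequence's fraction reacted to a pseudo-first-order model, with 1000 bootstraps. Reacted RNA was captured with streptavidin and quantified by triplicate qPCR and Illumina sequencing after 90 minutes at room temperature with 2–1250 μM biotinyl-aminoacyl-oxazolone and 0.43 μM mutagenized RNA pools bearing a 21-nt variable region.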

biotinyl-Ile-oxazolone = assay: self-aminoacylation, catalytic enhancement (BIO) (fold over background); higher = more active; k-Seq, kA / k0A0; sequences stand for … in GGGAAUGGAUCCACAUCUACGAAUUC…UUCACUGCAGACUUGACGAAGCUG
How it was run: as §1

biotinyl-Val-oxazolone = assay: self-aminoacylation, catalytic enhancement (BVO) (fold over background); higher = more active; k-Seq, kA / k0A0; sequences stand for … in GGGAAUGGAUCCACAUCUACGAAUUC…UUCACUGCAGACUUGACGAAGCUG
How it was run: as §1

biotinyl-Met-oxazolone = assay: self-aminoacylation, catalytic enhancement (BMO) (fold over background); higher = more active; k-Seq, kA / k0A0; sequences stand for … in GGGAAUGGAUCCACAUCUACGAAUUC…UUCACUGCAGACUUGACGAAGCUG
How it was run: as §1

biotinyl-Trp-oxazolone = assay: self-aminoacylation, catalytic enhancement (BWO) (fold over background); higher = more active; k-Seq, kA / k0A0; sequences stand for … in GGGAAUGGAUCCACAUCUACGAAUUC…UUCACUGCAGACUUGACGAAGCUG
How it was run: as §1

biotinyl-Phe-oxazolone = assay: self-aminoacylation, catalytic enhancement (BFO) (fold over background); higher = more active; k-Seq, kA / k0A0; sequences stand for … in GGGAAUGGAUCCACAUCUACGAAUUC…UUCACUGCAGACUUGACGAAGCUG
How it was run: as §1

Sequence | self-aminoacylation (biotinyl-Leu-oxazolone) | self-aminoacylation (biotinyl-Ile-oxazolone) | self-aminoacylation (biotinyl-Val-oxazolone) | self-aminoacylation (biotinyl-Met-oxazolone) | self-aminoacylation (biotinyl-Trp-oxazolone) | self-aminoacylation (biotinyl-Phe-oxazolone)
CUACUUCACACAAUCGUUCUG [Fam1A.1 aminoacylation ribozyme variant] | 0.484 | 0.649 | 0.61 | 0.477 | 0.392 | 0.66
ACUCACCUAGGCCAUCGGGUG [Fam2.2 aminoacylation ribozyme variant] | 5.87 | 4.74 | 6.46 | 4.87 | 5.91 | 34.2
CCACUUCAAACUAUCGGUCUG [Fam1A.1 aminoacylation ribozyme variant] | 1.16 | 1.44 | 1.46 | 1.39 | 1.39 | 0.866
AAGUUUGCUGAUAGUCGCAAU [Fam3.1 aminoacylation ribozyme variant] | 1.09 | 1.71 | 1.33 | 1.22 | 1.87 | 1.68
CUACUUCAAACAAUCGGUAUG [Fam1A.1 aminoacylation ribozyme variant] | 0.995 | 0.788 | 0.799 | 0.789 | 10.1 | 21.5
CCAAACUUCAAGCGAUCGGUC [Fam1B.1 aminoacylation ribozyme variant] | 1.32 | 1.1 | 1.35 | 1.11 | 1.25 | 1.09
AGUCACCUAGGUCAUCGGGUG [Fam2.2 aminoacylation ribozyme variant] | 6.74 | 4.81 | 4.99 | 6.24 | 7.24 | 38.1
AUUCCCCUGGUAAUCGAGUGA [Fam2.1 aminoacylation ribozyme variant] | 5.9 | 3.09 | 3.28 | 6.36 | 7.35 | 37.7
AUUACCCCGGUCAUCGAGUGU [Fam2.1 aminoacylation ribozyme variant] | 2.45 | 1.56 | 1.87 | 2.58 | 3.57 | 9.98
AAGUUUGCUAAUAAUCACAAG [Fam3.1 aminoacylation ribozyme variant] | 1.08 | 1.08 | 0.832 | 1.05 | 1.1 | 1.25
CUACUCCAAAAAAUCGGUCUG [Fam1A.1 aminoacylation ribozyme variant] | 0.857 | 0.894 | 0.846 | 0.674 | 1.06 | 1.33
AAGGUUGCUAAUAUUCGCAAG [Fam3.1 aminoacylation ribozyme variant] | 2.03 | 1.59 | 1.26 | 1.22 | 1.22 | 1.6
AGUGACCUAGGUCAUCGGGUG [Fam2.2 aminoacylation ribozyme variant] | 4.73 | 3.48 | 3.69 | 3.53 | 4.64 | 25.7
